Source: publication PMC7195491
Several values for one entry are separate records, joined by “and”; a condition that tells them apart may be missing. Equal values may be shown once. Read-outs that look alike come from different tables or passages of the source.

Assays:
[1] = target: DIP-α (Dpr Interacting Protein alpha), extracellular region (Drosophila melanogaster) (UniProt Q9W4R3); test: SPR; Biacore T100, CM4 chip; DIPs and DIP mutants immobilised by amine coupling, Dprs as analytes; 25 °C; 10 mM Tris-HCl pH 7.2, 150 mM NaCl, 1 mM EDTA, 1 mg/mL BSA, 0.01% Tween-20; duplicate responses fit globally to a 1:1 model; Rmax fixed for KDs > 100 μM, lower limit listed for KDs > 300 μM
[2] = target: DIP-α A11T {A82T}, extracellular region (Drosophila melanogaster) (UniProt Q9W4R3); test: as above
[3] = target: DIP-α A7K {A78K}, extracellular region (Drosophila melanogaster) (UniProt Q9W4R3); test: as above
[4] = target: DIP-α G4A {G74A}, extracellular region (Drosophila melanogaster) (UniProt Q9W4R3); test: as above
[5] = target: DIP-α G4L {G74L}, extracellular region (Drosophila melanogaster) (UniProt Q9W4R3); test: as above
[6] = target: DIP-α I16A {I91A}, extracellular region (Drosophila melanogaster) (UniProt Q9W4R3); test: as above
[7] = target: DIP-α K10Q D29S {K81Q D129S}, extracellular region (Drosophila melanogaster) (UniProt Q9W4R3); test: as above
[8] = target: DIP-α K10Q G4S {K81Q G74S}, extracellular region (Drosophila melanogaster) (UniProt Q9W4R3); test: as above
[9] = target: DIP-α K10Q S32D {K81Q S133D}, extracellular region (Drosophila melanogaster) (UniProt Q9W4R3); test: as above
[10] = target: DIP-α K10Q {K81Q}, extracellular region (Drosophila melanogaster) (UniProt Q9W4R3); test: as above
[11] = target: DIP-α N19D {N94D}, extracellular region (Drosophila melanogaster) (UniProt Q9W4R3); test: as above
[12] = target: DIP-α (Dpr Interacting Protein alpha), extracellular region (Drosophila melanogaster) (UniProt Q9W4R3); test: as above; remark: listed apart in the source
[13] = target: DIP-β (isoformG), extracellular region (Drosophila melanogaster); test: as above
[14] = target: DIP-γ (Dpr Interacting Protein gamma), extracellular region (Drosophila melanogaster) (UniProt Q9VAR6); test: as above
Chain of DIP-γ (Dpr Interacting Protein gamma), extracellular region (Drosophila melanogaster) (Q9VAR6 entry or part of it): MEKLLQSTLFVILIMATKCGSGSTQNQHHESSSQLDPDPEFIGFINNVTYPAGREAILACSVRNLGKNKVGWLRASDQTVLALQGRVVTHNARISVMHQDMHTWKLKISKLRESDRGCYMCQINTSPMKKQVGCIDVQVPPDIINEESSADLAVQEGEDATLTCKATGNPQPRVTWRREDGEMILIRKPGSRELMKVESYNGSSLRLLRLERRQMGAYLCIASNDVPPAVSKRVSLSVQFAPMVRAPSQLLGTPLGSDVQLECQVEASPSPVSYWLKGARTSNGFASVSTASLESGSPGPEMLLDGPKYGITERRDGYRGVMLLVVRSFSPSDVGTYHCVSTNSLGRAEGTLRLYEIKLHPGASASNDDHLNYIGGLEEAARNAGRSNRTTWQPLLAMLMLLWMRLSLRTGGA

[15] = target: DIP-γ R15N {R86N}, extracellular region (Drosophila melanogaster) (UniProt Q9VAR6); test: as above
Chain of DIP-γ R15N {R86N}, extracellular region (Drosophila melanogaster) (Q9VAR6 entry or part of it R15N {R86N} | R15N R86N): as the sequence (Q9VAR6 entry or part of it) above, with R86N counted along it

[16] = target: DIP-γ R22S {R112S}, extracellular region (Drosophila melanogaster) (UniProt Q9VAR6); test: as above
Chain of DIP-γ R22S {R112S}, extracellular region (Drosophila melanogaster) (Q9VAR6 entry or part of it R22S {R112S} | R22S R112S): as the sequence (Q9VAR6 entry or part of it) above, with R112S counted along it

[17] = target: DIP-γ (Dpr Interacting Protein gamma), extracellular region (Drosophila melanogaster) (UniProt Q9VAR6); test: as above; remark: listed apart in the source
[18] = target: DIP-γ (Drosophila melanogaster); test: SPR; Biacore T100, CM4 chip; DIPs and DIP mutants immobilised by amine coupling (760-980 RU), Dprs and Dpr mutants as analytes (three-fold dilution series, up to 81 μM, in some cases up to 27 or 9 μM); 25 °C; 10 mM Tris-HCl pH 7.2, 150 mM NaCl, 1 mM EDTA, 1 mg/mL BSA, 0.01% Tween-20; equilibrium fit, 1:1 model; for KDs > 300 μM a lower limit is listed
[19] = target: DIP-γ mutant at position 9 (Drosophila melanogaster); test: as above

Kd [1] [µM] | Kd [2] [µM] | Kd [3] [µM] | Kd [4] [µM] | Kd [5] [µM] | Kd [6] [µM] | Kd [7] [µM] | Kd [8] [µM] | Kd [9] [µM] | Kd [10] [µM] | Kd [11] [µM] | Kd [12] [µM] | Kd [13] [µM] | Kd [14] | Kd [15] [µM] | Kd [16] [µM] | Kd [17] [µM] | Kd [18] [µM] | Kd [19] [µM] | Substance
1.4 | 18.1 | 0.28 | 0.9 | 45.8 | 56.9 | 41.6 | 68 | 39.1 | 31.8 | 1.4 | 1.3 | 33.3 |  |  |  |  |  |  | Dpr10 (Defective proboscis extension response 10), extracellular region (from UniProt M9PF17 1-362) (domain or fragment)
 |  |  |  |  |  |  |  |  |  |  | > 500 | 270 | 8.54 µM and 7.12 µM | 13.1 | 9.5 | 7.15 |  |  | Dpr11 (Defective proboscis extension response 11), extracellular region (from UniProt Q8MRE6 1-360) (domain or fragment)
 |  |  |  |  |  |  |  |  |  |  |  |  |  |  |  |  | 7.9 | 37.2 | Dpr11 (domain or fragment)
